Assay results: the supplement of paper PMC9732359
± gives the uncertainty stated by the source.

Test: protein stability index of a GFP-peptide fusion (yeast GPS) (PSI 1-4); higher = more stable; sorted into four equal gates, so the index is relative within each strain
Procedure, shortened: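 Mid-log yeast cultures in leucine-free medium, carrying a pooled plasmid library, were sorted into four equal gates by their GFP/Cherry fluorescence ratio. Each plasmid expressed Cherry along with GFP fused upstream of a tiled 17-residue yeast protein peptide. Plasmids recovered from each gate were PCR-amplified and Illumina-sequenced, with reads assigned to strains by barcodes. The protein stability index was obtained by summing each gate's read frequency weighted by its gate number.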

Row | Sequence | protein stability index (doa10∆) | protein stability index (pdr5∆) | protein stability index (san1∆) | protein stability index (ubr1∆)
1 | PFQVSSFVKETKLHSGD [SRB8] | 2.96 ± 0.088 | 2.77 ± 0.082 | 2.8 ± 0.085 | 2.91 ± 0.061
2 | DAAEEEKEEEAKEESDD [RPP2B] | 2.88 ± 0.3 | 3.22 ± 0.14 | 3.09 ± 0.3 | 3.41 ± 0.078
3 | SSISWKNIAQCLSDYTK [YJL039C/NUP192] | 2.05 ± 0.08 | 2.11 ± 0.076 | 1.87 ± 0.076 | 2.11 ± 0.058
4 | VASADYESQTFSSKNEW [PRP8] | 2.83 ± 0.098 | 3.4 ± 0.19 | 2.85 ± 0.18 | 2.89 ± 0.13
5 | QSVEEKVLEMKNLKDTA [YIL149C/MLP2] | 2.81 ± 0.25 | 2.58 ± 0.2 |  | 2.78 ± 0.089
6 | SRSSVCVKAIEALFQSR [YCG1] | 3.14 ± 0.064 | 2.92 ± 0.085 | 3.04 ± 0.077 | 2.97 ± 0.066
7 | NETSEQLVPIRLEFDQD [SNF5] | 3.19 ± 0.097 | 3.12 ± 0.099 | 3.31 ± 0.11 | 3.29 ± 0.07
8 | QLSNWQKIRNSEGISEA [ITC1] | 2.94 ± 0.06 | 2.96 ± 0.083 | 2.97 ± 0.065 | 2.8 ± 0.073
9 | FNEKFPSLIQEEEEDTT [NUT1] | 2.78 ± 0.086 | 3.15 ± 0.093 | 3.06 ± 0.074 | 3.06 ± 0.078
10 | KGKKGQKKRVVDPFTRK [RPS1A] | 3.25 ± 0.13 | 3.69 ± 0.18 | 3.19 ± 0.15 | 3.47 ± 0.056
11 | GKQVFSLLIKPNHNSPV [RPO31] |  | 3.33 ± 0.28 |  | 
12 | DLTMGQVGERIKQTFKN [RPO21] | 3.31 ± 0.15 | 2.81 ± 0.19 | 3.25 ± 0.073 | 3.23 ± 0.11
13 | KPIYKDTRFGGRMDMTR [SSN2] | 3.1 ± 0.17 | 3.36 ± 0.14 | 3.33 ± 0.068 | 3.4 ± 0.14
14 | MVTSNVVLVSGEGERFT [SKP1] | 2.11 ± 0.14 | 2.56 ± 0.086 | 2.26 ± 0.12 | 1.73 ± 0.081
15 | EGSKSHPFGHALVAGIE [RPL27A] | 2.73 ± 0.061 | 2.83 ± 0.069 | 2.59 ± 0.071 | 2.76 ± 0.047
16 | LIIQYPPNNARRTYNTL [ISW2] | 2.09 ± 0.037 | 2.49 ± 0.042 | 2.43 ± 0.052 | 2.33 ± 0.031
17 | GKLFSDIKVLKRQLIKE [YIL149C/MLP2] | 3.01 ± 0.12 | 2.56 ± 0.08 | 2.59 ± 0.078 | 2.42 ± 0.04
18 | KPTVILKLLKENIIQME [FAS1] | 1.38 ± 0.087 | 1.36 ± 0.12 | 1.24 ± 0.11 | 1.1 ± 0.11
19 | QMQQQQQAQAQAQAQAQ [GAL11] | 2.1 ± 0.074 | 2.08 ± 0.053 | 2.19 ± 0.059 | 1.97 ± 0.057
20 | ELIALNLSEARLVIKEA [RPB4] | 3.01 ± 0.16 |  |  | 2.73 ± 0.18
21 | TRKAMLDPLEVHMLDFP [PRP8] | 2.84 ± 0.061 | 2.94 ± 0.06 | 3.03 ± 0.054 | 3 ± 0.048
22 | QAHTLYNSVRPFGVSTI [PRE10] | 2.71 ± 0.083 | 2.74 ± 0.071 | 2.92 ± 0.095 | 2.6 ± 0.042
23 | SKVVDDMPSLRLIDLSG [GRR1] | 2.8 ± 0.076 | 2.91 ± 0.081 | 2.72 ± 0.056 | 2.71 ± 0.078
24 | IKNFKSLLLSSSFKEDC [SSN2] | 2.82 ± 0.11 | 2.98 ± 0.094 | 2.96 ± 0.086 | 3.11 ± 0.086
25 | RRYDRKQSGFGGQTKPV [RPL42A] | 3.08 ± 0.084 | 3.03 ± 0.066 | 2.88 ± 0.056 | 3.148 ± 0.029
26 | FTPQEIEYCSAQPSVQS [FAS2] | 2.88 ± 0.27 |  |  | 
27 | IGMSLLMRTFLYTLAQE [SIR3] | 1.82 ± 0.14 | 2.37 ± 0.083 | 1.83 ± 0.1 | 1.76 ± 0.11
28 | ASAKSVRSGVSKSAPSK [YAR002W/NUP60] | 2.96 ± 0.078 | 2.92 ± 0.1 | 2.96 ± 0.064 | 2.99 ± 0.056

Row | Sequence | protein stability index (doa10∆) | protein stability index (pdr5∆) | protein stability index (san1∆) | protein stability index (ubr1∆)
29 | HIKFSAGTEANAVSFDT [SRB4] | 1.98 ± 0.068 | 2.16 ± 0.055 | 2.66 ± 0.052 | 2.21 ± 0.04
30 | HDIIEGINAGEIEIPEN [RPL12A] | 2.75 ± 0.071 | 2.52 ± 0.072 | 2.5 ± 0.077 | 2.4 ± 0.06
31 | ITNTDETITTKRVPNPN [SWP82] | 3.09 ± 0.077 | 3.25 ± 0.098 | 3.13 ± 0.078 | 3.21 ± 0.082
32 | LLGTMAGGAADCQFWET [PRE2] | 1.61 ± 0.069 | 2.6 ± 0.078 | 2.22 ± 0.084 | 2.65 ± 0.078
33 | LIPCKYLNRHADFFVRE [RPN7] | 2.62 ± 0.092 | 2.49 ± 0.12 | 2.18 ± 0.19 | 2.81 ± 0.11
34 | DGGYNAQLAKAKTELNE [SMC2] | 2.64 ± 0.092 | 1.94 ± 0.058 | 1.44 ± 0.072 | 1.5 ± 0.038
35 | GYMQKPVYATIGVETGS [PRP28] | 1.47 ± 0.25 | 2.23 ± 0.21 | 1.68 ± 0.19 | 1.77 ± 0.19
36 | VISIVGGHSLEEISFSL [PRP28] | 2.82 ± 0.13 | 2.73 ± 0.13 | 3.19 ± 0.091 | 3.18 ± 0.13
37 | AALAPKIGPLGLSPKKV [RPL12A] | 2.66 ± 0.13 | 3.08 ± 0.097 | 3.02 ± 0.097 | 3.26 ± 0.07
38 | SRLLDILEDYCYFRDFE [ISW2] | 1.71 ± 0.088 | 1.42 ± 0.089 | 1.5 ± 0.12 | 1.21 ± 0.058
39 | KSLLLNTLNIDNTARVI [BRN1] | 2.71 ± 0.057 | 2.48 ± 0.052 | 2.47 ± 0.066 | 2.42 ± 0.034
40 | QLIKVAVHNGGRKHVAA [RPL9A] | 2.47 ± 0.091 | 2.85 ± 0.087 | 2.66 ± 0.097 | 2.72 ± 0.03
41 | DANLLEEGETSRPLKKV [SWI3] | 3.23 ± 0.12 | 3.45 ± 0.16 | 2.95 ± 0.082 | 2.99 ± 0.15
42 | QKYVGEGARMVRELFEM [RPT1] |  |  |  | 2.92 ± 0.24
43 | DRSKPVALTSFLGYKAG [RPL3] | 2.85 ± 0.075 | 2.89 ± 0.063 | 3.08 ± 0.06 | 2.09 ± 0.036
44 | KSTDLTPKGNESEQELS [MTR3] | 3.39 ± 0.11 | 2.9 ± 0.089 | 2.46 ± 0.089 | 3.21 ± 0.054
45 | YSNSHQMAVHIATDGGR [RET1] | 1.98 ± 0.071 | 2.95 ± 0.086 | 2.35 ± 0.13 | 2.73 ± 0.057
46 | SLQSSSQTQLENANAAN [MED2] | 1.96 ± 0.075 | 2.6 ± 0.056 | 2.64 ± 0.091 | 1.33 ± 0.035
47 | MPQSGTGVSVEAVDDVF [RPN11] | 3.35 ± 0.11 | 3.12 ± 0.11 | 3 ± 0.092 | 3.19 ± 0.051
48 | DRKKDKNVKHSGNIQLD [RPL12A] | 3.31 ± 0.12 | 3.46 ± 0.17 | 3.38 ± 0.073 | 3.18 ± 0.096
49 | TSKSFSKLLYDDVTCDK [SIN4] | 3.01 ± 0.077 | 2.9 ± 0.051 | 2.7 ± 0.054 | 3.16 ± 0.039
50 | ADYRLILTGTPLQNNLP [SNF2] | 2.08 ± 0.047 | 2.15 ± 0.043 | 1.65 ± 0.058 | 2.03 ± 0.037
51 | SPKPYAVKYGLNHVVSL [RPL8B] | 1.96 ± 0.07 | 2.09 ± 0.069 | 2.09 ± 0.092 | 1.94 ± 0.046
52 | EDRPPEYWAQRKKKFVL [ISW2] |  | 3.13 ± 0.19 |  | 
53 | NGWEKYLHNVELGEKKN [ISW2] | 1.7 ± 0.087 | 1.8 ± 0.14 | 1.65 ± 0.16 | 2.56 ± 0.092
54 | GELLHHPIMETIVNDSN [RPN9] | 2.6 ± 0.053 | 2.77 ± 0.054 | 2.2 ± 0.08 | 2.97 ± 0.078
55 | GKPHFSLLGGFDENIAR [PCI8] | 3.18 ± 0.11 | 2.91 ± 0.12 | 3.25 ± 0.095 | 2.96 ± 0.076
